First the molecules themselves.
B1: Pistol ribozyme (parent)
chain: GGGUCGUUGUUCCAUAAUCGCGUGGAUAUGGCACGCAAGUUUCUACCGGGCACCGUAAAUGUCCGACUGGAGCCGUUCGGGCGGCUAUAAACAGACCUCAGGCCCGAAGCGUGGCGGCACCUGCCGCCGGUGGUAAAAAAGAUCGGAAGAGCACACGUCU

In this data set the parent is B1. Kind of data set: aptazyme ON/OFF ratio, guanine; higher = stronger switching; co-transcriptional cleavage with and without guanine.
As to U8A G9C U10C U11G C12U C13U, the “aptazyme ON/OFF ratio” value worked out at 1.07.
As for U8A G9C U10C U11G C12U C13G, the figure is 1.08; as for U8A G9A U11A, 1.39; as for U8A G9A U11G, 1.44.
As for U8A G9A U11C, the figure is 1.05.
As for U8A G9C U10A C12G C13U, the figure is 1.14; as for U8A G9C U10A C12G C13A, 1.19; as for U8A G9C U10A C12G C13G, 1.11.
Take U8A G9C U10A U11C C12A C13U: the “aptazyme ON/OFF ratio” value stood at 1.24.
As for U8A G9C U10A U11C C12A C13G, the figure is 1.12.
As for U8A G9C U10A U11C C12A C13A, the figure is 1.22; as for U8A G9C U10A U11G C13G, 1.04.
For U8A G9C U10A U11G C13U, the “aptazyme ON/OFF ratio” value turned out to be 1.18.
The result for U8A G9C U10A U11G C13A reads 1.11; that for U8A G9A U10G C13U, 1.29; that for U8A G9A U10G C13A, 1.29.
As for U8A G9A U10G C13G, the figure is 1.21; as for U8A G9C U10C C13U, 1.06.
The result for U8A G9C U10C C13A reads 1.01; that for U8A G9C U10C C13G, 1.01; that for U8A G9C U10A U11G C12A C13G, 1.26.
On to U8A G9C U10A U11G C12A C13A, for which the “aptazyme ON/OFF ratio” value was 1.14.
As for U8A G9C U10A U11G C12A C13U, the figure is 1.14.
As for U8A G9A U10C U11C, the figure is 1.04.
Turning to U8A G9A U10C U11A, the “aptazyme ON/OFF ratio” value stood at 1.33.
As to U8A G9A U10C U11G, the “aptazyme ON/OFF ratio” value was 1.33.
The result for U8A G9A U10G U11A C12G C13U reads 1.12; that for U8A G9A U10G U11A C12G C13A, 1.24.
As for U8A G9A U10G U11A C12G C13G, the figure is 1.19.
The result for U8A G9C U10C U11A C13A reads 1.16; that for U8A G9C U10C U11A C13U, 1.11; that for U8A G9C U10C U11A C13G, 1.07.
On to U8A G9C U10G C12U C13G, for which the “aptazyme ON/OFF ratio” value was 1.11.
In the case of U8A G9C U10G C12U C13U, the “aptazyme ON/OFF ratio” value was determined as 1.22.
The result for U8A G9C U10G C12U C13A reads 1.21; that for U8A G9C U10C U11A C12G C13G, 1.12; that for U8A G9C U10C U11A C12G C13U, 1.16.
The result for U8A G9C U10C U11A C12G C13A reads 1.06; that for U8A G9A U11A C12A C13A, 1.3; that for U8A G9A U11A C12A C13G, 1.25.
As for U8A G9A U11A C12A C13U, the figure is 1.35.
On to U8A G9A U10G, for which the “aptazyme ON/OFF ratio” value was 1.46.
As for U8A G9C U10C U11A C12G, the figure is 1.03.
As for U8A G9C U10C U11A C12A, the figure is 1.06.
In the case of U8A G9C U10C U11A C12U, the “aptazyme ON/OFF ratio” value turned out to be 1.13.
The result for U8A G9A U10C C12U C13A reads 1.17; that for U8A G9A U10C C12U C13U, 1.2; that for U8A G9A U10C C12U C13G, 1.26.
With U8A G9C U10A U11C C13U, the “aptazyme ON/OFF ratio” value came out at 1.
As for U8A G9C U10A U11C C13A, the “aptazyme ON/OFF ratio” value was determined as 1.1.
The result for U8A G9C U10A U11C C13G reads 1.03; that for U8A G9A U11G C13U, 1.17; that for U8A G9A U11G C13G, 1.09.
As for U8A G9A U11G C13A, the figure is 1.13; as for U8A G9A U10G U11C C12U C13U, 1.15.
As for U8A G9A U10G U11C C12U C13A, the figure is 1.21.
In the case of U8A G9A U10G U11C C12U C13G, the “aptazyme ON/OFF ratio” value amounted to 1.16.
The result for U8A G9A U10G U11A C13A reads 1.03.
The result for U8A G9A U10G U11A C13U reads 1.06; that for U8A G9A U10G U11A C13G, 1.02; that for U8A G9A U10C C12A, 1.15.
The result for U8A G9A U10C C12U reads 1.24; that for U8A G9A U10C C12G, 1.18.
On to U8A G9A U10C U11C C12U C13U, for which the “aptazyme ON/OFF ratio” value was determined as 1.05.
The result for U8A G9A U10C U11C C12U C13G reads 1.05; that for U8A G9A U10C U11C C12U C13A, 1.04; that for U8A G9A U11C C13G, 1.08.
As for U8A G9A U11C C13U, the figure is 1.04.
The result for U8A G9A U11C C13A reads 1.04; that for U8A G9C U10G C13A, 1.38; that for U8A G9C U10G C13G, 1.17.
Consider U8A G9C U10A U11G C12U, for which the “aptazyme ON/OFF ratio” value was 1.25.
The result for U8A G9C U10A U11G C12G reads 1.18; that for U8A G9C U10A U11G C12A, 1.06.
As for U8A G9A U10C U11G C13A, the figure is 1.16; as for U8A G9A U10C U11G C13U, 1.17.
The result for U8A G9A U10C U11G C13G reads 1.18; that for U8A G9A U10C C12G C13U, 1.22.
Consider U8A G9A U10C C12G C13G, for which the “aptazyme ON/OFF ratio” value was determined as 1.24.
The result for U8A G9A U10C C12G C13A reads 1.19; that for U8A G9A U11C C12U C13A, 1.23.
As for U8A G9A U11C C12U C13G, the figure is 1.2.
As for U8A G9A U11C C12U C13U, the figure is 1.21.
